Where two headings read alike, the source gives them in different places. Where a SMILES comes first, the peptide text is derived from it.
Assays:
[1] = system: mouse tumor model; assay: Delivery of siRNA to tumor cells in vivo; conditions: siRNA/peptide complex administered to mouse tumor model
Procedure: The present Example describes, among other things, an exemplary use of surfactant peptides for delivery of siRNA to tumor cells in vivo. siRNA is complexed with Ac-A4K-NH2 (SEQ ID NO: 55), Ac-A3KA3-NH2 (SEQ ID NO:55), Ac-A6K-NH2 (SEQ ID NO: 105), or a control peptide. The siRNA and peptide complexes arrange into nanospherical structures. A composition comprising the nanospherical structures is administered to a mouse tumor model. One or more cancer associated genes is suppressed and the size of the tumor decreases.

[2] = system: MCF-7 cell; assay: Cell toxicity, luciferase emission with peptides only or peptides/negative control siRNA; assay type: cell-based
Description: siRNA (Luciferase GL3 duplex) was complexed with Ac-A4K-NH2 (SEQ ID NO: 55), Ac-A3KA3-NH2 (SEQ ID NO:55), Ac-A6K-NH2 (SEQ ID NO: 105), and a control agent (DharmaFECT 1; commercially available lipid transfection agent). The siRNA and peptide complexes arranged into nanospherical structures. A composition comprising the nanospherical structures was provided to tumor cells (MCF-7 cell; breast cancer cell line) in vitro to preliminary transfection efficacy and cell toxicity. Two methods were utilized for the present Example. For Method 1, MCF-7 cells were cultured on a plate. The siRNA and peptide complexes were added into the culture medium over the cells. The culture dish (96 wells) containing the siRNA and peptide complexes and the cells was incubated for 48 hours. For Method 2, a concentrated suspension of MCF-7 cells (5×10^6 cells/ml) was prepared in a tube. The siRNA and peptide complexes were applied into the suspension. The cell mixture was incubated for 1 hour in the tube. The cell mixture was plated in the culture dish and incubated for 48 hours. Luciferase emission from each sample was observed. Table 4 summarizes experimental conditions e.g., concentration of siRNA and peptide surfactants, charge ratio, and types of siRNA (e.g., Luciferase GL3 duplex or negative control thereof). The buffer used in this Example was Opti-MEM1 (serum-free). As control samples, buffer only, negative control (NC) siRNA with or without the peptide surfactants, DharmaFECT 1 with or without siRNA (or NC siRNA) were tested with the cells. Cell toxicity.

[3] = AFM imaging of peptide and peptide/siRNA nanostructure; assay type: physicochemical; conditions: for Diameter of the nanospheres / Nanostructure of peptide: peptide alone
Description: Nanostructure plays an important role in formulation of agents (e.g., therapeutics, such as siRNA).

[4] = Zeta potential by Zetasizer Nano ZS; assay type: physicochemical; conditions: 0.5 w/v % in an aqueous solution; in mV (unit assumed)
Procedure: Zeta potentials were measured by Zetasizer Nano ZS (Malvern) to characterize electrokinetic potential of the complex. Ac-A4K-NH2 (SEQ ID NO:55) concentration was 0.5 w/v % in an aqueous solution. siRNA (ribophorin II, RPN2) concentration was controlled for their various charge ratios of A4K/siRNA. The zeta potential of Ac-A4K-NH2 (SEQ ID NO:55) alone was +21.9, which represents that the surface of A4K nanosphere was positively charged because of the primary amine of lysine in Ac-A4K-NH2 (SEQ ID NO:55). As the equipment only detects dispersed phases larger than about 3.8 nm and the size of siRNA in water is about 2 nm in diameter, the measurement only reads the electrokinetic potential of Ac-A4K-NH2 (SEQ ID NO:55) or Ac-A4K-NH2 (SEQ ID NO:55)/siRNA complexes, not unassociated siRNA.

[5] = Transmittance study of surfactant peptides and peptide/siRNA complexes in aqueous solution; assay type: physicochemical; conditions: for Transmittance (%) With siRNA (peptide %/siRNA %) 0.1%/0.01%: peptide 0.1%/siRNA 0.01%; for Transmittance (%) With siRNA (peptide %/siRNA %) 0.1%/0.01% / Transmittance (%) With siRNA (peptide %/siRNA %) 0.5%/0.05% / Transmittance (%) Peptide alone 0.1% (w/v) / Transmittance (%) Peptide alone 0.5% (w/v): aqueous solution pH 7.5; for Transmittance (%) With siRNA (peptide %/siRNA %) 0.1%/0.01% / Transmittance (%) With siRNA (peptide %/siRNA %) 0.5%/0.05%: * = significantly cloudy and phase-separated; for Transmittance (%) With siRNA (peptide %/siRNA %) 0.5%/0.05%: peptide 0.5%/siRNA 0.05%; for Appearance of peptide mixed with siRNA in transmittance study: peptide 0.1% and 0.5% (w/v) with siRNA 0.01% and 0.05% (w/v), pH 7.5
[6] = literature reports; cited from earlier work
[7] = MCF-7, peptide only or with NC siRNA, 48 hours, Methods 1 and 2

Row | Molecule | Cancer associated gene expression [1] | Size of the tumor [1] | Cell toxicity (decrease in luciferase emission) compared with DharmaFECT [2] | Diameter of the nanospheres [3] [nm] | Nanostructure of peptide [3] | Cell toxicity (decrease in luciferase emission) compared with DharmaFECT [2, 7] | Zeta potential of peptide alone [4] | Thickness of each layer of double layer structure ([3]; 0.1% (w/v)) [nm] | Transmittance (%) With siRNA (peptide %/siRNA %) 0.1%/0.01% [5] | Transmittance (%) With siRNA (peptide %/siRNA %) 0.5%/0.05% [5] | Transmittance (%) Peptide alone 0.1% (w/v) [5] [%] | Transmittance (%) Peptide alone 0.5% (w/v) [5] [%] | Nanostructure / self-assembly (previously reported) [6] | Appearance of peptide mixed with siRNA in transmittance study [5]
1 | CC(=O)N[C@@H](C)C(=O)N[C@@H](C)C(=O)N[C@@H](C)C(=O)N[C@@H](CCCCN)C(=O)N[C@@H](C)C(=O)N[C@@H](C)C(=O)N[C@@H](C)C(N)=O [Ac-A3KA3-NH2, Ac-AAAKAAA-NH2] (Ac-AAAKAAA-NH2) | suppressed | decreases | less toxic than DharmaFECT | 30 | nanospheres (i.e., spherical nanovesicles) | – | – | – | – | – | – | – | – | –
2 | CC(=O)N[C@@H](C)C(=O)N[C@@H](C)C(=O)N[C@@H](C)C(=O)N[C@@H](C)C(=O)N[C@@H](CCCCN)C(N)=O [Ac-A4K-NH2, Ac-AAAAK-NH2] (Ac-AAAAK-NH2) | suppressed | decreases | – | 85 | nanospheres (i.e., spherical nanovesicles) | less toxic than DharmaFECT | +21.9 | – | – | – | – | – | – | –
3 | CC(=O)N[C@@H](C)C(=O)N[C@@H](C)C(=O)N[C@@H](C)C(=O)N[C@@H](C)C(=O)N[C@@H](C)C(=O)N[C@@H](C)C(=O)N[C@@H](CCCCN)C(N)=O [Ac-A6K-NH2, reference compound] (Ac-AAAAAAK-NH2) | suppressed | decreases | – | – | – | less toxic than DharmaFECT | – | 0.8 | – | – | – | – | – | –
4 | A6K2A6: exemplary conventional self-assembling peptide for comparison (AAAAAAKKAAAAAA) [reference compound] | – | – | – | – | – | – | – | – | 62.9* % | 12.7* % | 98.5 | 83.1 | – | –
5 | AAAAAAK [A6K, exemplary conventional self-assembling peptide for comparison, reference compound] | – | – | – | – | – | – | – | – | 38.4* % | 15.3* % | 94.8 | 98.7 | nanotubes | cloudy and phase separated
6 | AAAAAK [A5K, exemplary conventional self-assembling peptide for comparison, reference compound] | – | – | – | – | – | – | – | – | 95.5% | 22.7* % | 99.2 | 71.9 | – | cloudy and phase separated
7 | AAAAK [A4K] | – | – | – | – | nanospheric structures (spherical nanovesicles) | – | – | – | 98.7% | 97.5% | 99.4 | 97.8 | does not exhibit relevant self-assembly in water | transparent and substantially without phase separation
8 | AAAK [A3K] | – | – | – | – | nanospheric structures | – | – | – | 81.1% | 77.3% | 96.2 | 99.6 | – | transparent and substantially without phase separation
9 | AAAKAAA [A3KA3] | – | – | – | – | nanospheric structures (spherical nanovesicles) | – | – | – | 98.7% | 88.2% | 99.2 | 97.5 | – | transparent and substantially without phase separation
10 | Ac-AAAK-NH2 [Ac-A3K-NH2] | – | – | – | 28 | nanospheres | – | – | – | – | – | – | – | – | –

Reference: patent US20190231706A1, “SURFACTANT PEPTIDE NANOSTRUCTURES AND USES IN DRUG DELIVERY” (3-D Matrix, Ltd., priority 2017, published 2019)
